{"source": "patent WO2013190679A1", "about": "(dated 2013)", "binders": {"B1": {"name": "mouse anti-LOX-1 monoclonal antibody #10-1 (antibody, V domains shown)", "VH": "EVKLLESGGGLVQPGGSLKLSCAVSGFDFSRYWMSWVRQAPGKGLEWIGEINPDSSTINFTPSLKDKFIVSRDNAKNTLYLQMSKVRSEDTALYYCARNDVLLGAMDYWGQGTSVTVSS", "VL": "DVLMTQTPLSLPVSLGDQASISCRSSQTIVHSNGKTYLEWYLQKPGQSPKLLIYKVSNRFSGVPDRFSGSGSGTDFTLKISRVEAEDLGVYYCFQGSHVPLTFGAGTKLELK", "notes": "Whole mouse IgG1, kappa from the hybridoma; also called anti-LOX-1 antibody #10-1; IgG type of mouse anti-LOX-1 antibody #10-1"}, "B2": {"name": "Fv-type anti-LOX-1 antibody (scFv)", "scFv": "EVKLLESGGGLVQPGGSLKLSCAVSGFDFSRYWMSWVRQAPGKGLEWIGEINPDSSTINFTPSLKDKFIVSRDNAKNTLYLQMSKVRSEDTALYYCARNDVLLGAMDYWGQGTSVTVSSGGGGSGGGGSGGGGSDVLMTQTPLSLPVSLGDQASISCRSSQTIVHSNGKTYLEWYLQKPGQSPKLLIYKVSNRFSGVPDRFSGSGSGTDFTLKISRVEAEDLGVYYCFQGSHVPLTFGAGTKLELK", "notes": "The VH gene was amplified with the #10-1 heavy chain secretion signal; Expressed in FreeStyle 293 and purified by the His tag; also called Fv type antibody; Fv-type antibody; not shown: C-terminal V5 and 6xHis tag from the pEF6/V5/His vector"}}, "key": {"[1]": {"molecular_target": "T1, recombinant human LOX-1 protein (61-273aa) (human, UniProt P78380 61-273)", "assay": "ELISA, LOX-1 (61-273aa) immobilised, HRP anti-mouse IgG"}, "[2]": {"molecular_target": "T2, BSA (negative control, Sigma) (UniProt P02769 25-607)", "T2 sequence (P02769 25-607 limits assumed)": "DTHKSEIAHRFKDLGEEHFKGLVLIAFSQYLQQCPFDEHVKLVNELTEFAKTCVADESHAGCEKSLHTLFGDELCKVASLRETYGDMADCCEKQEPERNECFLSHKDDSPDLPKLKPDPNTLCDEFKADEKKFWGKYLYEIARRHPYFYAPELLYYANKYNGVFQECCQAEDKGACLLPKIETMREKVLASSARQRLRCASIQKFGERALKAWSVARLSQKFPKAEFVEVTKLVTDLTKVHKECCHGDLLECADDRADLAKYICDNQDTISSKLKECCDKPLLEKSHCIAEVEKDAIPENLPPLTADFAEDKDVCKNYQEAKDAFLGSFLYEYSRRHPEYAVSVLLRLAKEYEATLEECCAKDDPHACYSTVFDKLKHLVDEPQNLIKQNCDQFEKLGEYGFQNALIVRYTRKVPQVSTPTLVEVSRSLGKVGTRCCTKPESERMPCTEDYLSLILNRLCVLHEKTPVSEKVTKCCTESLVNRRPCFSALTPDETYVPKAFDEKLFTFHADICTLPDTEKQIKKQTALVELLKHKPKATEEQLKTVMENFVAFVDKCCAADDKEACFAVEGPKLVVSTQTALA", "assay": "ELISA, BSA immobilised, HRP anti-mouse IgG"}, "[3]": {"molecular_target": "T2, BSA (negative control, Sigma)", "assay": "ELISA, BSA immobilised, HRP anti-V5 tag"}, "[4]": {"molecular_target": "T1, recombinant human LOX-1 protein …", "assay": "ELISA on immobilised LOX-1; protein concentration at the inflection point of a 4-parameter logistic fit"}}}
{"binder": "B1", "values": [{"measurement": "binding result", "setting": "[1]", "result": "binds"}, {"measurement": "binding result", "setting": "[2]", "result": "no binding"}]}
{"binder": "B2", "values": [{"measurement": "binding result", "setting": "[3]", "result": "no binding"}, {"measurement": "EC50", "setting": "[4]", "result": 2.91, "unit": "µg/mL"}]}
